According to patent US20200240982A1 (GOVERNMENT OF THE UNITED STATES OF AMERICA AS REPRESENTED …, published 2020):

T1: Staphylococcal enterotoxin B (UniProt P01552 28-266)
T1 sequence: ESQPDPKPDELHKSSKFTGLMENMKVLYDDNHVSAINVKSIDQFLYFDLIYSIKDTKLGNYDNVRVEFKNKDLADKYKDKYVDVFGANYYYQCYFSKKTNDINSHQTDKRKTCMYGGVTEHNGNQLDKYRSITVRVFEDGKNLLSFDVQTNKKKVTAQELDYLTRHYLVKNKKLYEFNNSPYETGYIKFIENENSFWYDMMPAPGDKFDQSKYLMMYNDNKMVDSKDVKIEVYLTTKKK

B1: DD7-DD7-SpyTag (VHH)
chain: EVQLVQSGGGSVQAGGSLRLSCAHSSITVPDYTIGWFRRAPGKGGEEVSLISMHGGRSWYAGSVKGRFAISRDSVKNTVYLQMNNLKPEDTDIYYCGGTTFGLAAAPNEYDSWGQGSQVTVSSGGGGSGGGGSGSEVQLVQSGGGSVQAGGSLRLSCAHSSITVPDYTIGWFRRAPGKGGEEVSLISMHGGRSWYAGSVKGRFAISRDSVKNTVYLQMNNLKPEDTDIYYCGGTTFGLAAAPNEYDSWGQGSQVTVSSGGGGSGGGGSGSAHIVMVDAYKPTKAAALEHHHHHH
B2: AcVe anti-SEB sdAb monomer (VHH)
VHH: DVQLVESGGGLVQPGGSLRLTCAASGLIFGSYAMGWFRQAPGKAREFVAAISWSGGDTYADSVKGRFTISRDNAKNTVYLQMNSLEPEDTAVYSCAAVGSKYYISKDAKDYGYWGQGTQVTVSS

Key:
[1] = molecular target: Dengue NS1 protein (serotype not given) (Dengue virus)
[2] = molecular target: T1, Staphylococcal enterotoxin B; test: MagPlex sandwich fluoroimmunoassay; capture sdAb attached directly by EDC/sNHS

| Binder | fold improvement in ability to detect NS1 (against DD7-gs3k) [1] | binding result [2] |
| --- | --- | --- |
| B1 | ~25 fold |  |
| B2 |  | binds |
